Test: label from the status in PepcDB records
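Also: failed if final PepcDB status was selected cloned or expressed and not failed if soluble or beyond.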

Sequence | protein production
MDPLNLSWYDDDLERQNWSRPFNGSDGKADRPHYNYYATLLTLLIAVIVFGNVLVCMAVSREKALQTTTNYLIVSLAVADLLVATLVMPWVVYLEVVGEWKFSRIHCDIFVTLDVMMCTASILNLCAISIDRYTAVAMPMLYNTRYSSKRRVTVMISIVWVLSFTISCPLLFGLNNADQNECIIANPAFVVYSSIVSFYVPFIVTLLVYIKIYIVLRRRRKRVNTKRSSRAFRAHLRAPLKGNCTHPEDMKLCTVIMKSNGSFPVNRRRVEAARRAQELEMEMLSSTSPPERTRYSPIPPSHHQLTLPDPSHHGLHSTPDSPAKPEKNGHAKDHPKIAKIFEIQTMPNGKTRTSLKTMSRRKLSQQKEKKATQMLAIVLGVFIICWLPFFITHILNIHCDCNIPPVLYSAFTWLGYVNSAVNPIIYTTFNIEFRKAFLKILHC | failed
KGESYKGKVAVASVVLNRTEKKGFPDTIRGVIYQKNAFEPVANGSINQKPDKESIEAAEEALSSKNRETDAIFFYNPKTASDNWIRSRKIVEKIGRHVFAV | not failed
MKVLITDFDLFAKVGGGQTFYRSLIRKNPDIDFYYLIDKEARVTERPDNAHGVPFQEKYFLADLNNFFDVNPPKWVYRSFIRASNIATSVAGMEFDLIDSPDYEQWAIFLRPALDYHRVKFAKIALSLHGKISTTLKLDWFNQGKENIPLELEEWKQYATVDLRYGISKSYIDEWQSLSRFSAHYYHPLHFFELPQPLEAIASGDRPDLNFVGRTEKRKGPDIFIDIAWWLNRNLYHEANIIGPHSFNDTGTISSETYLRSMLGDRQSPVKFLPPKPQQELMGLFARKTVTFVPSRYDTLNLVALESLFSGCPTVVGGGAGVCRLLKEDFPDVPFVEIDLDNIYSCLPAIENILSDYNNYRRRLVDSVKNSTAIADSPILADIYQQTGQYEEEIRDELQSWYGQLMGYWVSTQENVSFLQPLKAQLKPTLKQIKNNLKSTAGQLKGKILQPLADDRNAQLVKAPNLLKKYKEAFNATEQTAKDLAEKIQMGWRLGSGYESEFQGVRGKLATNYRIDRVRLWRELARIEELRGNTLVSATYKVRALRALGSDQFGDLPFVLRTLTEYGFPKEMAAVSALYGQPSEREERCLSLIEQARLDNLANPAGDEYEIWDDRRGDGPYRASIIVSLYNAAAKLPLFLKTLQHQTLIKRGEAEVVLVDSGSPGNEYEVFKDLAPTLGYPLLYARSPQRETIQSAWNRGIKLAKSPYLAFLGVDETILPDCLEILAGELDQDPELDWAIGHSLVTNVDMQGGWVSDIMPYDRTGYEQDLVYLETCYLSWVGALYRKSIHERFGYYDQSFRGAGDTEFKNRVMPFIKSKVVDKMLGLFWNYPDERTTQSPATEIEDMRAWYLHRTLAGVKYAFQRRSPREVENLLYHCLGYRKSYCKHTSTDFDHAHNLVTYLEKVDPNAEALKYAPGIEALLGTYRSLDWLPKLSKFSPLNSMLTARKLTKQWEQEHQQSWPEDRLFSPHYSIFNDNRHEQHSFLWFTDITASKK | failed
MARVLVDFQPVGRRVEVDAGQTILSAIQQLGLSLGAGGLTAPCGGRGLCGRCRVRIASGEVGEVNPAERRFLTPAQLEKGYRLACQATVIGPVKVEIPPESMLGVQKLQVEGLDIAVTPEPPVKRYNLPLSKTTIENPLPLWQQVTGELEATYGLDRPGVDFGLAREWKPMATEGECVVTVRGPEVINIYTGRLAPPPVGLAVDLGTTKVAGFLINLETGATLAADGIMNPQITYGEDVMARLGYALEGEEEYRRIQEVEIEGLNRLAATLAAKAGVATTDIEEAVIVGNTAMHHLLLHLPVEQLARAPYVPALTTPVEIKTRNLGLNLSPGAFVYLQPVIAGFVGGDHVAMILGSRIDEARKVTLGLDIGTNTEIVLSYGGKMLSCSCASGPAFEGAHIAQGMRAVTGAIAAVRLSDDGRDVFWESIGGVPPLGICGSGILDAVAELYRTGILNASGRLDLNHPRVRRPAGGGPPEFLLVPAAETGIDGDLVVTQKDINEIQLAKAAIATGTLLLLEAAGLTVKDLEEVVVAGAFGTHLKLESAITIGMFPNLPLTAFRQVGNAAGTGARLALLSLTERKRGEAIARQVGYLELMTRPSFHEVYVKSLLLP | failed
MQDSFFSFLSSPINLLFLFVAFFLLFVTPWLWNIVNSAHNIHKLLDPLGIKKKENSLPVTGLLFLPLLLIIIFIEWFWPLANITLFPILASPYIKFNIIAVISVVILLILIQCDKKKSMELWVLAYAAVLYLLYLIIIMATVVVGMNAFPASHYIFAPESSMTINRTIIYGLLIAHLIFIWLTISLKFTWRLLLMILYTLALSFAYFSLIVS | failed
MIEEEAIVTQVEEHAIWVEKFRKSACGSCAGGCSTSLVARLLGGKPLRLRIATEARVAPGDRVIIGVEEGALLAGSFRMYLFPLFSLIGGALLGKLLAAQGLSATAEAGSIAGGLVGLGLTLVLLKYCPSLQRQNLHPVFIRRISR | failed
KIIHIDCDCFYAALEMRDDPSLRGKALAVGGSPDKRGVVATCSYEARAYGVRSAMAMRTALKLCPDLLVVRPRFDVYRAVSKQIHAIFRDYTDLIEPLSLDEAYLDVSASPHFAGSATRIAQDIRRRVAEELHITVSAGVAPNKFLAKIASDWRKPDGLFVITPEQVDGFVAELPVAKLHGVGKVTAERLARMGIRTCADLRQGSKLSLVREFGSFGERLWGLAHGIDERPVEVDSRRQSVSVECTFDRDLPDLAACLEELPTLLEELDGRLQRLDGSYRPDKPFVKLKFHDFTQTTVEQSGAGRDLESYRQLLGQAFARGNRPVRLIGVGVRLLDLQGAHEQLR | failed
MDSVELCLPESFSLHYEEELLCRMSNKDRHIDSSCSSFIKTEPSSPASLTDSVNHHSPGGSSDASGSYSSTMNGHQNGLDSPPLYPSAPILGGSGPVRKLYDDCSSTIVEDPQTKCEYMLNSMPKRLCLVCGDIASGYHYGVASCEACKAFFKRTIQGNIEYSCPATNECEITKRRRKSCQACRFMKCLKVGMLKEGVRLDRVRGGRQKYKRRIDAENSPYLNPQLVQPAKKPYNKIVSHLLVAEPEKIYAMPDPTVPDSDIKALTTLCDLADRELVVIIGWAKHIPGFSTLSLADQMSLLQSAWMEILILGVVYRSLSFEDELVYADDYIMDEDQSKLAGLLDLNNAILQLVKKYKSMKLEKEEFVTLKAIALANSDSMHIEDVEAVQKLQDVLHEALQDYEAGQHMEDPRRAGKMLMTLPLLRQTSTKAVQHFYNIKLEGKVPMHKLFLEMLEAKV | not failed
MTMFGKIFSKKTPKTDIKSNGEALNASEIEQFIKDTLSHYISDNFPQGVLAVCQQLSITQKKKITIKLLMPFVCQGELDLLAQTLSENLARTVNFEIDLAIKPVRQFSLGNDKNKAGQEGMLQGKVANIIAIASGKGGVGKSTTTVNLAYALMCEGARVGILDADIYGPSIPSMLGLKNEKPSSSDGKLMTPVDAKGLSAMSIGFLVDEADATVWRGPMASSAFNQLLNETDWPELDYLLIDMPPGTGDIQLTLAQKVPVAAAVIVTTPQDIALIDAVKGIAMFDKVKVPVLGIVENMSYHLCENCGHKSHIFGEAGGEHMAEDHETKLLGQLPLDITIRQDADFGESDIIENSAGEIANHYRKIARNVSAQLFLQCDTASPLTATVAHKALEHHHHHH | not failed
MAPLPLAVIVYEPGDVLEEILAAARDRLVGLPDVRIAGLVPRLGPRHSNGRASFWLDDIVRGDSIALSQDLGPGSTSCILNADGLATARMRLAEAIAVRPDLVLFGRFAKEEIAGRGIREEIGLALAQDVPALVAVERAMLPGWIAFAAEGWTMLPADADAVVAWFVALAAERQSADTLEHHHHHH | failed
MSANNTAKNMHPETRAVGSETSSLQASQDEFENLVRNVDVKSRIMDQYADWKGVRYRLGGSTKKGIDCSGFVQRTFREQFGLELPRSTYEQQEMGKSVSRSNLRTGDLVLFRAGSTGRHVGIYIGNNQFVHASTSSGVIISSMNEPYWKKRYNEARRVLSRSLEHHHHHH | not failed
MDVLPLLLLVAGSAAVAGAARRTPVPAPLLLVAAGLIASYIPGVPEYTLDPEVVLPLVLPPLLYTAASDSSYLDLRAQLRPVALLSIGYVLFATLVVGWAAYLLVPGLPLPAALVLGAVVAPPDAVAATAVARRVGLPSRITTILQGESLVNDATAITAYKVALAAAVGEGATWAHGVGEFLLAAVGGVAVGLLLMVPLHWLRTHLKEALLQNTLSLLIPFVAYGLAEWAHASGVLAVVVVALYLGHRNYEVDFATRLQEEAVWKMVAFVLESAVFALIGLQLQVVLKGLGEYRGVDAAWYAVAVFLVVVLARFVWVYPATFLPRLLSARIREREENPTWKAPFIIGWAGMRGVVSLAIAFSIPLTVHGQGKGPFPGRNLILFLTFTTVIGTLVVQGLTLPPLIRLLRLPGRDAQAETLAEANAQAQASRVAELRLNDLLDDERNALPPPLADRLRDVLERRRNAVWERLGAVNPVTGESVDDTYRRLSREMIAAERSVFVRLRNGRYIDDEMLRTLLRRLDLEEAAAFREAT | failed

From a protein production outcome set (Wang et al. 2014)
